This note sets out measurements from patent US20190077860A1 (EISAI R AND D MANAGEMENT, published 2019).

Where a chain is given by its changes, count along the chain named.

T1: human EphB2 extracellular region-SEAP-His protein (human, UniProt P29323 19-543)
T1 construct: extracellular domain; also called hEphB2-SEAP-His
T1 sequence (looked up): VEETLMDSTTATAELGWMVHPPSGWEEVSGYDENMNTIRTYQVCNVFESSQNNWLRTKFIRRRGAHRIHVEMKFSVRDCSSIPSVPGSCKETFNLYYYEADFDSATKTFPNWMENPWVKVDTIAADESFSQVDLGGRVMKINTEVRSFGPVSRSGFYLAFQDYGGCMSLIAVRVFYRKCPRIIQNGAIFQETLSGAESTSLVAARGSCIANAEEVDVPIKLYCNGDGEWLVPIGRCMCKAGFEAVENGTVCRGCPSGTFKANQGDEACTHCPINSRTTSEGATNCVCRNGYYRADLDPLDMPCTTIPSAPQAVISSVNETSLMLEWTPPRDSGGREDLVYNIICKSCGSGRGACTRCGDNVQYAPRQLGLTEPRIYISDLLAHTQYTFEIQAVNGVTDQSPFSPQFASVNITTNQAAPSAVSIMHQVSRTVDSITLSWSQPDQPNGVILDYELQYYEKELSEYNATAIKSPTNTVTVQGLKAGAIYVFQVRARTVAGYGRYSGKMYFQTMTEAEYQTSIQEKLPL

T2: human EphA8 extracellular region-SEAP-His protein (human, UniProt P29322 28-542)
T2 construct: extracellular domain; also called hEphA8-SEAP-His
T2 sequence (looked up): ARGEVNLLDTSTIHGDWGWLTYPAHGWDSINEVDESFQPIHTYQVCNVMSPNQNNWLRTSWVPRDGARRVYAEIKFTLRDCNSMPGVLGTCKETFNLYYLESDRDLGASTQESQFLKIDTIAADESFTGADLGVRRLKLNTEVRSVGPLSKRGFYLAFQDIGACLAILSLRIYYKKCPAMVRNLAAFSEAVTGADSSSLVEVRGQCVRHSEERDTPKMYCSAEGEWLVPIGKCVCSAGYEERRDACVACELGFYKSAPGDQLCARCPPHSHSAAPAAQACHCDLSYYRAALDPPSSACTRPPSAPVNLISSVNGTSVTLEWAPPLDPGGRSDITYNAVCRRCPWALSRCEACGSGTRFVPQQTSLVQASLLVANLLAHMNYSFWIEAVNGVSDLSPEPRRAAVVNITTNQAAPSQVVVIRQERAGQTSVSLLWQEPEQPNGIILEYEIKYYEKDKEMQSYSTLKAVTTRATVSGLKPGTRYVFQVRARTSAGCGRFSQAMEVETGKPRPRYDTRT

T3: human EphA10 extracellular region-SEAP-His protein (human, UniProt Q5JZY3 34-565)
T3 construct: extracellular domain; also called hEphA10-SEAP-His
T3 sequence (looked up): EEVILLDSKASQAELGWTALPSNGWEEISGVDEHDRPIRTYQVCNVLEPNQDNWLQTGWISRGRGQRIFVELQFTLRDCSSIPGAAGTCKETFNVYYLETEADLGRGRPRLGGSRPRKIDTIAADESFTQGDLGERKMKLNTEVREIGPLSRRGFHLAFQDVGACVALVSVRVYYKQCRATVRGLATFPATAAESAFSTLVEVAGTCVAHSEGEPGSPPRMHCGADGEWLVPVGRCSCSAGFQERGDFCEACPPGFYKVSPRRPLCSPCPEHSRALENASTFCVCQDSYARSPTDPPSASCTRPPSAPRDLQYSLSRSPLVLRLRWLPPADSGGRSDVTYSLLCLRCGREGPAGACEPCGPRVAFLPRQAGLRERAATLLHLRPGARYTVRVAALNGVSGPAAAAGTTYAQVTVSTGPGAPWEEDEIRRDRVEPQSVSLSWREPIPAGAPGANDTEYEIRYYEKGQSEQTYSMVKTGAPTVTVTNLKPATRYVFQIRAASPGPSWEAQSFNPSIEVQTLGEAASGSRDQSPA

T4: human EphA6 extracellular region-SEAP-His protein (human, UniProt Q9UF33 23-550)
T4 construct: extracellular domain; also called hEphA6-SEAP-His
T4 sequence (looked up): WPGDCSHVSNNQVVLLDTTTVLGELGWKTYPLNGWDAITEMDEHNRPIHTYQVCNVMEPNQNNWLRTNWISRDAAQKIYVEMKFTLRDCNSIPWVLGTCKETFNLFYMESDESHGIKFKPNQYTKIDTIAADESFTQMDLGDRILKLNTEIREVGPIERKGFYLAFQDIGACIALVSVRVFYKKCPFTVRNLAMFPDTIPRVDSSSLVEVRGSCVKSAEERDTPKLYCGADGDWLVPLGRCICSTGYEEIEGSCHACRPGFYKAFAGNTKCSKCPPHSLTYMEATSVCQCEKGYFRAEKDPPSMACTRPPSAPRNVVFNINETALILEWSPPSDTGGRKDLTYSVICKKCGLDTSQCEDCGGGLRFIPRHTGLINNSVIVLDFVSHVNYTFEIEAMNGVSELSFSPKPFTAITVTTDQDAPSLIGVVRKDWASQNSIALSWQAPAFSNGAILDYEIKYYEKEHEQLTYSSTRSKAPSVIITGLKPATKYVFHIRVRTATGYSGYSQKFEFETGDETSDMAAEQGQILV

B1: humanized antibody No. 88 (antibody, human IgG1, kappa)
heavy: QVQLVQSGSELKKPGASVKVSCKASGYTFTDYSMHWVRQAPGQGLKWMGWINTETGEPTYAQGFTGRFVFSLDTSVSTAYLQISSLKAEDTAVYYCARIPLYYYGSRYWYFDVWGQGTTVTVSSASTKGPSVFPLAPSSKSTSGGTAALGCLVKDYFPEPVTVSWNSGALTSGVHTFPAVLQSSGLYSLSSVVTVPSSSLGTQTYICNVNHKPSNTKVDKRVEPKSCDKTHTCPPCPAPPAAAPSVFLFPPKPKDTLMISRTPEVTCVVVDVSHEDPEVQFNWYVDGVEVHNAKTKPREEQFNSTFRVVSVLTVVHQDWLNGKEYKCKVSNKGLPAPIEKTISKTKGQPREPQVYTLPPSREEMTKNQVSLTCLVKGFYPSDIAVEWESNGQPENNYKTTPPMLDSDGSFFLYSKLTVDKSRWQQGNVFSCSVMHEALHNHYTQKSLSLSPG
light: DIQMTQSPSSLSASVGDRVTITCRASENIYRNLAWYQQKPGKAPQLLLYAATNLADGVPSRFSGSGSGTDYTLTISSLQPEDFATYYCQHFWGTPWTFGQGTKVEIKRTVAAPSVFIFPPSDEQLKSGTASVVCLLNNFYPREAKVQWKVDNALQSGNSQESVTEQDSKDSTYSLSSTLTLSKADYEKHKVYACEVTHQGLSSPVTKSFNRGEC
notes: human Ig kappa; also called L1-6/HA2
B2: humanized antibody No. 140 (antibody, human IgG2)
heavy: QVQLVQSGSELKKPGASVKVSCKASGYTFTDYSMHWVRQAPGQGLKWMGWINTETGEPTYAQGFTGRFVFSLDTSVSTAYLQISSLKAEDTAVYYCARIPLYYYGSRYWYFDVWGQGTTVTVSSASTKGPSVFPLAPSSRSTSESTAALGCLVKDYFPEPVTVSWNSGALTSGVHTFPAVLQSSGLYSLSSVVTVPSSNFGTQTYTCNVDHKPSNTKVDKTVERKSCVECPPCPAPPAAAPSVFLFPPKPKDTLMISRTPEVTCVVVDVSHEDPEVQFNWYVDGVEVHNAKTKPREEQFNSTFRVVSVLTVVHQDWLNGKEYKCKVSNKGLPAPIEKTISKTKGQPREPQVYTLPPSREEMTKNQVSLTCLVKGFYPSDIAVEWESNGQPENNYKTTPPMLDSDGSFFLYSKLTVDKSRWQQGNVFSCSVMHEALHNHYTQKSLSLSPG
light: B1 light with Q45K, L48V
notes: human Ig kappa; also called L1-4/HA2
B3: humanized antibody No. 141 (antibody, human IgG2)
heavy: B2 heavy with K46E, Q62D, G63D, T65K
light: B1 light with Q45K, L48V
notes: human Ig kappa; also called L1-4/HK1
B4: humanized antibody No. 92 (antibody, human IgG1, kappa)
heavy: B1 heavy with V2I, Q62D, G63D, T65K
light: B1 light
notes: human Ig kappa; also called L1-6/HK4
B5: humanized antibody No. 89 (antibody, human IgG1, kappa)
heavy: B1 heavy with V2I
light: B1 light
notes: human Ig kappa; also called L1-6/HA4
B6: humanized antibody No. 139 (antibody, human IgG2)
heavy: B2 heavy with K46E
light: B1 light with Q45K, L48V
notes: human Ig kappa; also called L1-4/HA1
B7: humanized antibody No. 91 (antibody, human IgG1, kappa)
heavy: B1 heavy with Q62D, G63D, T65K
light: B1 light
notes: human Ig kappa; also called L1-6/HK2
B8: humanized antibody No. 142 (antibody, human IgG2)
heavy: B2 heavy with Q62D, G63D, T65K
light: B1 light with Q45K, L48V
notes: human Ig kappa; also called L1-4/HK2
B9: humanized antibody No. 143 (antibody, human IgG2)
heavy: B2 heavy with V2I, Q62D, G63D, T65K
light: B1 light with Q45K, L48V
notes: human Ig kappa; also called L1-4/HK4
B10: humanized antibody No. 138 (antibody, human IgG2)
heavy: B2 heavy with V2I
light: B1 light with Q45K, L48V
notes: human Ig kappa; also called L1-4/HA4
B11: humanized antibody No. 90 (antibody, human IgG1, kappa)
heavy: B1 heavy with K46E, Q62D, G63D, T65K
light: B1 light
notes: human Ig kappa; also called L1-6/HK1

The target of one assay is T1, human EphB2 extracellular …. Kind of assay: ELISA. For orientation: An ELISA detects its analyte on a solid surface through an enzyme-linked reagent.
With B1, the “A450 as % of hEphA4-SEAP-His” value was 6%.
Consider B2, for which the “A450 as % of hEphA4-SEAP-His” value was determined as 5.3%.
On to B3, for which the “A450 as % of hEphA4-SEAP-His” value was 5.2%.
As for B4, the “A450 as % of hEphA4-SEAP-His” value came out at 6.6%.
For B5, the “A450 as % of hEphA4-SEAP-His” value came out at 5.7%.
On the same count and under the same terms, the figure for B6 is 5.7%.
Consider B7, for which the “A450 as % of hEphA4-SEAP-His” value worked out at 7%.
With B8, the “A450 as % of hEphA4-SEAP-His” value was 5.6%.
On to B9, for which the “A450 as % of hEphA4-SEAP-His” value amounted to 5.8%.
The same measure, in the same setting: next, B10: 5.2%; B11: 5.9%.

The target in another assay is T2, human EphA8 extracellular …. Kind of assay: ELISA.
Turning to B1, the “A450 as % of hEphA4-SEAP-His” value worked out at 6.2%.
Still for that read-out and setting: next, B2: 5.4%; B3: 5.5%; B4: 6.7%.
Still for that read-out and setting: next, B5: 5.7%.
For B6, the “A450 as % of hEphA4-SEAP-His” value turned out to be 6%.
For B7, the “A450 as % of hEphA4-SEAP-His” value amounted to 6.2%.
Still for that read-out and setting: next, B8: 5.7%; B9: 6%; B10: 5.4%.
The same measure, in the same setting: the figure for B11 is 5.4%.

Another assay has as its target T3, human EphA10 extracellular …. Kind of assay: ELISA.
As to B1, the “A450 as % of hEphA4-SEAP-His” value is 5.8%.
Regarding B2, the “A450 as % of hEphA4-SEAP-His” value is 5.2%.
The same measure, in the same setting: the figure for B3 is 5.2%; for B4 it is 6.6%.
With B5, the “A450 as % of hEphA4-SEAP-His” value is 5.7%.
Consider B6, for which the “A450 as % of hEphA4-SEAP-His” value is 5.5%.
Consider B7, for which the “A450 as % of hEphA4-SEAP-His” value was 8.5%.
Turning to B8, the “A450 as % of hEphA4-SEAP-His” value came to 5.4%.
Turning to B9, the “A450 as % of hEphA4-SEAP-His” value was determined as 5.2%.
With B10, the “A450 as % of hEphA4-SEAP-His” value came out at 5%.
With B11, the “A450 as % of hEphA4-SEAP-His” value stood at 5.1%.

The next assay deals with T4, human EphA6 extracellular …. Kind of assay: ELISA.
With B1, the “A450 as % of hEphA4-SEAP-His” value worked out at 7.5%.
For B2, the “A450 as % of hEphA4-SEAP-His” value came out at 10.8%.
In the case of B3, the “A450 as % of hEphA4-SEAP-His” value was determined as 9%.
On the same count and under the same terms, next, B4: 9.6%; B5: 8.4%; B6: 10%.
Turning to B7, the “A450 as % of hEphA4-SEAP-His” value came to 8.8%.
As for B8, the “A450 as % of hEphA4-SEAP-His” value was 9.7%.
On the same count and under the same terms, next, B9: 9.9%; B10: 10.2%; B11: 7.6%.

The target in a further assay is T5, human EphA2 extracellular region-SEAP-His protein (human, UniProt P29317 24-537).
T5 construct: extracellular domain; also called hEphA2-SEAP-His
T5 sequence (P29317 24-537): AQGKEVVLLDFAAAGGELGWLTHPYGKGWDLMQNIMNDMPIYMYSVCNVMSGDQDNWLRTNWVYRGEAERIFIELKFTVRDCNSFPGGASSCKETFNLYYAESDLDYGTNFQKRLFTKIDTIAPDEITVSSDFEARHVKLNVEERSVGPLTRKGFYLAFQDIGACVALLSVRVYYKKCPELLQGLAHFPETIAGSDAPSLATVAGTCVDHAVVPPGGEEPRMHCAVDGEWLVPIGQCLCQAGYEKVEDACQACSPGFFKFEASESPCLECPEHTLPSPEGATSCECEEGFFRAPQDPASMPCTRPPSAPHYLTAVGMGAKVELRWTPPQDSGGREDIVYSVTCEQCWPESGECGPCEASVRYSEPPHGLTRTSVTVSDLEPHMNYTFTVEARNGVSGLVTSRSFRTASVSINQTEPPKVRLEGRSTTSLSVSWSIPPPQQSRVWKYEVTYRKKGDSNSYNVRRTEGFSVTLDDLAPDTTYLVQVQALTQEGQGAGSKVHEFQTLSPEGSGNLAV
Kind of assay: ELISA.
For the molecule B1, the “A450 as % of hEphA4-SEAP-His” value amounted to 5.8%.
B2: the “A450 as % of hEphA4-SEAP-His” value came out at 5.3%.
The same measure, in the same setting: next, B3: 5.2%; B4: 6.9%.
In the case of B5, the “A450 as % of hEphA4-SEAP-His” value was found to be 5.6%.
On the same count and under the same terms, the figure for B6 is 5.9%; for B7 it is 6.1%; for B8 it is 5.6%.
Still for that read-out and setting: the figure for B9 is 5.7%; for B10 it is 5%.
B11: the “A450 as % of hEphA4-SEAP-His” value stood at 5.2%.
